The supplement of paper PMC9112550, “Optimization of the antimicrobial peptide Bac7 by deep mutational scanning” (BMC Biology, 2022)

Tested on: Escherichia coli TOP10
Assay: shrunken log2 fold change of peptide-encoding DNA abundance (4.5 h post-induction vs induction); higher = less antimicrobial activity (less host growth inhibition)
Conditions: time post-induction: 4.5 h; library: site-saturation at positions 5, 18, 19, 20
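Note: peptides expressed intracellularly from a pBAD plasmid library in pooled LB shake-flask culture, induced with 0.3% L-arabinose, DNA abundance read by NGS, three biological replicates, DESeq2 with apeglm shrinkage.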

Row | Sequence | shrunken log2 fold change
1 | RRIRYRPPRLPRPRPRPRNSPRP | 0.022
2 | RRIRWRPPRLPRPRPRPFSPPRP | 0.0392
3 | RRIRRRPPRLPRPRPRPIGIPRP | -0.088
4 | RRIRVRPPRLPRPRPRPPGSPRP | 0.342
5 | RRIRARPPRLPRPRPRPKTCPRP | 0.161
6 | RRIRVRPPRLPRPRPRPDDQPRP | -0.00455
7 | RRIRVRPPRLPRPRPRPLYCPRP | -0.596
8 | RRIRKRPPRLPRPRPRPSRVPRP | 0.24
9 | RRIRCRPPRLPRPRPRPIECPRP | -0.00475
10 | RRIRGRPPRLPRPRPRPDTPPRP | 0.799
11 | RRIRMRPPRLPRPRPRPTFRPRP | -0.091
12 | RRIRNRPPRLPRPRPRPDHTPRP | -0.0123
13 | RRIRIRPPRLPRPRPRPWMLPRP | -0.13
14 | RRIRQRPPRLPRPRPRPWHSPRP | -0.00968
15 | RRIRTRPPRLPRPRPRPSYLPRP | -0.416
16 | RRIRHRPPRLPRPRPRPFSFPRP | -0.363
17 | RRIRGRPPRLPRPRPRPKHVPRP | 0.0824
18 | RRIRRRPPRLPRPRPRPQSEPRP | 0.0256
19 | RRIRNRPPRLPRPRPRPPNRPRP | 2.99
20 | RRIRQRPPRLPRPRPRPSWKPRP | -0.244
21 | RRIRRRPPRLPRPRPRPIYMPRP | -0.138
22 | RRIRTRPPRLPRPRPRPPNMPRP | -0.203
23 | RRIRLRPPRLPRPRPRPGIGPRP | 0.417

Row | Sequence | shrunken log2 fold change
24 | RRIRMRPPRLPRPRPRPKTNPRP | 0.864
25 | RRIRRRPPRLPRPRPRPLNWPRP | 0.296
26 | RRIRCRPPRLPRPRPRPTFCPRP | -0.0442
27 | RRIRMRPPRLPRPRPRPNSWPRP | 0.122
28 | RRIRPRPPRLPRPRPRPHTDPRP | -0.327
29 | RRIRMRPPRLPRPRPRPSLVPRP | -0.252
30 | RRIRCRPPRLPRPRPRPIETPRP | -0.0366
31 | RRIRFRPPRLPRPRPRPQELPRP | -0.0341
32 | RRIRLRPPRLPRPRPRPCMQPRP | -0.154
33 | RRIRIRPPRLPRPRPRPVVEPRP | -0.0638
34 | RRIRCRPPRLPRPRPRPRPRPRP | 0.83
35 | RRIRSRPPRLPRPRPRPDWHPRP | -0.195
36 | RRIRYRPPRLPRPRPRPQDLPRP | 0.0284
37 | RRIRARPPRLPRPRPRPGDVPRP | 0.194
38 | RRIRWRPPRLPRPRPRPGIKPRP | -0.168
39 | RRIRGRPPRLPRPRPRPGLMPRP | 0.799
40 | RRIRRRPPRLPRPRPRPNKLPRP | -0.138
41 | RRIRMRPPRLPRPRPRPPEIPRP | 0.48
42 | RRIRQRPPRLPRPRPRPEKTPRP | -0.0176
43 | RRIRCRPPRLPRPRPRPEHTPRP | -0.0466
44 | RRIRYRPPRLPRPRPRPDMFPRP | -0.0113
45 | RRIRYRPPRLPRPRPRPLPHPRP | -0.375
46 | RRIRDRPPRLPRPRPRPCKMPRP | -0.0957

Row | Sequence | shrunken log2 fold change
47 | RRIRIRPPRLPRPRPRPQAGPRP | -0.16
48 | RRIRTRPPRLPRPRPRPTFFPRP | -0.11
49 | RRIRMRPPRLPRPRPRPEYGPRP | 0.132
50 | RRIRNRPPRLPRPRPRPNWAPRP | 0.0482
51 | RRIRDRPPRLPRPRPRPHVLPRP | 0.00542
52 | RRIRTRPPRLPRPRPRPPLCPRP | 0.0694
53 | RRIRIRPPRLPRPRPRPPNSPRP | 0.0359
54 | RRIRQRPPRLPRPRPRPVTIPRP | -0.0898
55 | RRIRYRPPRLPRPRPRPIPLPRP | -0.418
56 | RRIRLRPPRLPRPRPRPMVTPRP | 0.0098
57 | RRIRIRPPRLPRPRPRPPCLPRP | -0.122
58 | RRIRKRPPRLPRPRPRPTGEPRP | 0.954
59 | RRIRFRPPRLPRPRPRPYTSPRP | -0.256
60 | RRIRMRPPRLPRPRPRPMGLPRP | 0.0299
61 | RRIRVRPPRLPRPRPRPNHAPRP | 0.0625
62 | RRIRYRPPRLPRPRPRPAIIPRP | -0.244
63 | RRIRWRPPRLPRPRPRPVLSPRP | 0.415
64 | RRIRYRPPRLPRPRPRPWCAPRP | -0.255
65 | RRIRKRPPRLPRPRPRPIQEPRP | 0.000523
66 | RRIRHRPPRLPRPRPRPLFLPRP | -0.612
67 | RRIRNRPPRLPRPRPRPSAQPRP | 0.147
68 | RRIRERPPRLPRPRPRPDQMPRP | -0.161
69 | RRIRKRPPRLPRPRPRPLYYPRP | -0.458

Row | Sequence | shrunken log2 fold change
70 | RRIRARPPRLPRPRPRPVFHPRP | -0.253
71 | RRIRARPPRLPRPRPRPHLWPRP | 0.645
72 | RRIRWRPPRLPRPRPRPKVMPRP | -0.207
73 | RRIRTRPPRLPRPRPRPSLHPRP | -0.604
74 | RRIRQRPPRLPRPRPRPEIGPRP | 0.0792
75 | RRIRNRPPRLPRPRPRPPKVPRP | 0.28
76 | RRIRERPPRLPRPRPRPVAMPRP | -0.00351
77 | RRIRRRPPRLPRPRPRPQIPPRP | 0.00964
78 | RRIRMRPPRLPRPRPRPDYVPRP | -0.183
79 | RRIRSRPPRLPRPRPRPQCVPRP | -0.204
80 | RRIRARPPRLPRPRPRPASAPRP | 0.52
81 | RRIRGRPPRLPRPRPRPNPLPRP | 0.217
82 | RRIRGRPPRLPRPRPRPGYNPRP | 0.0217
83 | RRIRLRPPRLPRPRPRPYIWPRP | -0.017
84 | RRIRVRPPRLPRPRPRPDAYPRP | -0.056
85 | RRIRWRPPRLPRPRPRPPEMPRP | 0.812
86 | RRIRHRPPRLPRPRPRPPSMPRP | -0.343
87 | RRIRSRPPRLPRPRPRPMIVPRP | -0.377
88 | RRIRGRPPRLPRPRPRPHNRPRP | 0.0391
89 | RRIRMRPPRLPRPRPRPPIRPRP | 0.248
90 | RRIRGRPPRLPRPRPRPCMGPRP | 0.289
91 | RRIRGRPPRLPRPRPRPCDVPRP | -0.014
